Experimental data published in patent US20230312722A1 (NONA BIOSCIENCES SUZHOU, published 2023).

What was measured:
Assay in all cases: ELISA, plate coated with 1 µg/mL B7 family protein
[1] = molecular target: T1, Recombinant human B7H7/HHLA2 Fc Chimera (R&D 8084-B7-050) (human, UniProt Q9UM44 23-344)
T1 construct: Bought protein
T1 sequence (looked up): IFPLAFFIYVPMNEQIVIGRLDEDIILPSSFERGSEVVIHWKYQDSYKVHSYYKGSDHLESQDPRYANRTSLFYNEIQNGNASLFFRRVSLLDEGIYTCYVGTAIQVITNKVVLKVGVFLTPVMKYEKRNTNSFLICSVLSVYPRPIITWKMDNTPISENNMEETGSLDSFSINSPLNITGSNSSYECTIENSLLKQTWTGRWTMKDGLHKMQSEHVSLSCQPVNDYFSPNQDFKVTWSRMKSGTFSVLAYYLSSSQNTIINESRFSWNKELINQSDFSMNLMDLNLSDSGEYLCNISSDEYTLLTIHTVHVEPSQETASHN
Protocol: (§1) The proteins of the B7 family (see Table 9-1 for details) were each diluted to 1 μg/mL with PBS, added to a 96-well plate (Corning, #9018) at 100 μL per well, and incubated overnight at 4° C. After the liquid was discarded, the plate was washed 3 times with PBST buffer (pH 7.4, containing 0.05% tween-20), and 250 μL of 2% BSA blocking buffer was added. The plate was incubated at 37° C. for 1 hour. The blocking buffer was discarded, and the plate was washed 3 times with PBST buffer (pH 7.4, containing 0.05% Tween-20). The test antigen-binding protein was diluted to 2 concentrations: 10 nM and 1 nM, and added at 100 μL per well. The plate was incubated at 37° C. for 1 hour. An isotype antibody was taken as a control. After the plate was washed 3 times with PBST buffer (pH 7.4, containing 0.05% Tween-20), the plate was added with a 5000-fold diluted goat anti-human F(ab′)₂ HRP secondary antibody (Jackson ImmunoResearch, 109-035-097), and incubated at 37° C. away from light for 1 hour. After the plate was washed 3 times with PBST buffer (pH 7.4, containing 0.05% Tween-20), TMB (Biopanda, #TMB-S-003) was added at 100 μL/well. The plate was left away from light at room temperature for about 30 minutes. The reactions were terminated by adding 50 μL of stop buffer (BBI life sciences, #E661006-0200) to each well, and the absorbance values at 450 nm (OD450) was measured using a microplate reader (PerkinElemer, #Enspire).

[2] = molecular target: T2, Human B7-2/CD86 Protein, Fc Tag (Acro CD6-H5257) (human, UniProt P42081 26-247)
T2 construct: Bought protein
T2 sequence (looked up): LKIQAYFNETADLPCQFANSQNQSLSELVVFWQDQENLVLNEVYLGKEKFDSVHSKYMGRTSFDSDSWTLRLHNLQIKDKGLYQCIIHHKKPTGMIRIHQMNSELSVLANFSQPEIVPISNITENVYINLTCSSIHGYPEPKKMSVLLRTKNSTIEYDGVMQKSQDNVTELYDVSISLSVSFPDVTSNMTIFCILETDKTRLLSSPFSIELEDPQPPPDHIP
Protocol: as §1

[3] = molecular target: T3, B7-H3/CD276 Protein, Human, Recombinant (ECD, Fc Tag) (Sino Biological 11188-H02H) (human, UniProt Q5ZPR3 29-466)
T3 construct: extracellular domain; Bought protein
T3 sequence (looked up): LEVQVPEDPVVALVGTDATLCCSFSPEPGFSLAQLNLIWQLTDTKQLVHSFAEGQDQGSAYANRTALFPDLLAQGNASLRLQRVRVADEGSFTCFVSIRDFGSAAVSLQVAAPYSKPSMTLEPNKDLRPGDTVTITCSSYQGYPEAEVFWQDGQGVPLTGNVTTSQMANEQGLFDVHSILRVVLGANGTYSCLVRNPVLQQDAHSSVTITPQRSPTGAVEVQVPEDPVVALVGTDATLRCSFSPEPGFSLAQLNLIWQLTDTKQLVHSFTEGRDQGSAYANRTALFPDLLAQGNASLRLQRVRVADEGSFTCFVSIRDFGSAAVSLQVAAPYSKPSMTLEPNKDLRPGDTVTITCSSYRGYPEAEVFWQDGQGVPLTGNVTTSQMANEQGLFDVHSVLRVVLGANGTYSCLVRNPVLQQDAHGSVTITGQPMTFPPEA
Protocol: as §1

[4] = molecular target: T4, CD275/ICOS ligand Protein, Human, Recombinant (Fc Tag) (Sino Biological 11559-H02H) (human, UniProt O75144 19-258)
T4 construct: Bought protein; also called B7H2
T4 sequence (looked up): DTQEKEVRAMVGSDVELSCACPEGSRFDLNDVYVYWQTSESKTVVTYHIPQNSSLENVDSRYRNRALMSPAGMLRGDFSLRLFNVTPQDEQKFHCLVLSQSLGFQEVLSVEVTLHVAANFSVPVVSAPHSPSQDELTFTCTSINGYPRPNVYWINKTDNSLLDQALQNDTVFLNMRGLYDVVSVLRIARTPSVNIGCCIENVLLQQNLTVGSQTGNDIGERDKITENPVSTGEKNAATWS
Protocol: as §1

[5] = molecular target: T5, Human B7-DC/PD-L2/CD273 Protein, Recombinant (Fc Tag) (Sino Biological H10292-H02H) (human, UniProt Q9BQ51 20-219)
T5 construct: Bought protein
T5 sequence (looked up): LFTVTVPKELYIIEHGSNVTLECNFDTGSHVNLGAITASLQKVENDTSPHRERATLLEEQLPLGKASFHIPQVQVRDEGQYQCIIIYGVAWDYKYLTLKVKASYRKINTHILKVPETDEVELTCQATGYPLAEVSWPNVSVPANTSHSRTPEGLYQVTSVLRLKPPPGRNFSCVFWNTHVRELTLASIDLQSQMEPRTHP
Protocol: as §1

[6] = molecular target: T6, Recombinant human VISTA/B7H5/PD-1H Fc Chimera (R&D 7126-B7-050) (human, UniProt Q9H7M9 33-194)
T6 construct: Bought protein
T6 sequence (looked up): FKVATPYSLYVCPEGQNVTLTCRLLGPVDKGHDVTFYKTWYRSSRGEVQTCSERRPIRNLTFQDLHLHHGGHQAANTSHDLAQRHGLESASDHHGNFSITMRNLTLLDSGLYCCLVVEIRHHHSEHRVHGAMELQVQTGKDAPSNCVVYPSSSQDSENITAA
Protocol: as §1

[7] = molecular target: T7, Human B7-1/CD80 Protein, Fc Tag (Acro B71-H5259) (human, UniProt P33681 35-242)
T7 construct: Bought protein
T7 sequence (looked up): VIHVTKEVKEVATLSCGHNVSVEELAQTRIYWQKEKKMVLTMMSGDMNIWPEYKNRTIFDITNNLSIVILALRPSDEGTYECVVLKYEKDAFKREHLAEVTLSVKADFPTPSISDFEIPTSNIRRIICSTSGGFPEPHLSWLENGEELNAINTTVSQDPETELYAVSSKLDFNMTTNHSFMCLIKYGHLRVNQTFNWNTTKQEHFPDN
Protocol: as §1

[8] = molecular target: T8, Human PD-L1/B7-H1 Protein, His Tag (Acro PD1-H5229) (human, UniProt Q9NZQ7 19-238)
T8 construct: Bought protein
T8 sequence (Q9NZQ7 19-238 limits assumed): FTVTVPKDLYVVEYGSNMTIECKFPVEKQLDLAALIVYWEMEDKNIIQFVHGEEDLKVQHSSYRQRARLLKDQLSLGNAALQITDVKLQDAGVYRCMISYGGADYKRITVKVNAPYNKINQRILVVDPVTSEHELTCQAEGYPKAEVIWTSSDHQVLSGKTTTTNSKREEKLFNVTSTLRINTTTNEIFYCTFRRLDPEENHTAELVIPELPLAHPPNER
Protocol: as §1

[9] = molecular target: T9, B7-H6/NCR3LG1 Protein, Human, Recombinant (Fc Tag) (Sino Biological 16140-H02H) (human, UniProt Q68D85 25-262)
T9 construct: Bought protein
T9 sequence (looked up): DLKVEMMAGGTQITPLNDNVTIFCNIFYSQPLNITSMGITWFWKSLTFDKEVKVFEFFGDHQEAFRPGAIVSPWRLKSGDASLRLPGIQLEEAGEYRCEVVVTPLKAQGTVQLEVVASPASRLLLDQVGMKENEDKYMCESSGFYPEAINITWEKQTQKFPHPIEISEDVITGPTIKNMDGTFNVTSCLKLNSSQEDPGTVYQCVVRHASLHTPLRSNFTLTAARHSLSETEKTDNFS
Protocol: as §1

Measured: binding result

B1: PR002418 (antibody, human IgG1, kappa, V domains shown)
VH: QVQLVESGGGVVQPGRSLRLSCAASGFTFRSFGMHWVRQAPGKGLEWVAVISYDASNEYYADSVKGRFIISRDNSKDTLYLQMNSLRAGDTAVYYCAKGGGLRWYFAYWGQGTLVTVSS
VL: EIVMTQSPATLSVSPGERATLSCRASQSISSNLGWYQQKPGQAPRLLIYGASTRATGIPARFSGSGSGTEFTLTISSLQSEDFAVYYCQQYQSWPPLTFGGGTKVEIKR
notes: PTM variant/DE mutant of PR001476 (H: G55A; L: N92Q; Fc S239D, I332E), human IgG1
no binding (tested: 10 nM): all assays above
